Test results: patent publication US20240059769A1 (BIOLOJIC DESIGN, published 2024)

Key:
recombinant human IL-13 [1] = target: T1, recombinant human IL-13 (human, UniProt P35225 35-146); test: SPR
T1 construct: also called rh-IL-13; hIL-13

human TSLP [2] = target: T2, human TSLP (human, UniProt Q969D9 29-159); test: SPR
T2 construct: also called hTSLP; rhTSLP

[3] = target: T3, recombinant cynomolgus monkey IL-13 (cynomolgus monkey, UniProt Q0PW92 21-132); test: SPR
T3 construct: bought; also called rc-IL-13; cIL-13

[4] = target: T4, cynomolgus monkey (cyno) TSLP (cynomolgus monkey, UniProt A0A7N9CAT7 29-159); test: SPR
T4 construct: also called cTSLP; cynomolgus TSLP

recombinant human IL-13 [5] = target: T1, recombinant human IL-13; test: cell-based or functional assay
human TSLP [6] = target: T2, human TSLP; test: cell-based or functional assay
hTSLP-His [7] = target: T5, hTSLP-His (human, UniProt Q969D9 29-159, limits assumed); test: cell-based or functional assay
recombinant human IL-13 [8] = target: T1, recombinant human IL-13; test: cell-based or functional assay; remark: listed apart in the source
hTSLP-His [9] = target: T5, hTSLP-His; test: competition ELISA, 7 nM TSLP-His pre-incubated with antibody; competitor Tezepelumab coated
hTSLP-His [10] = target: T5, hTSLP-His; test: competition ELISA: antibody titrated and pre-incubated with 7 nM TSLP-His, then on a plate coated with 33.001 (Tezepelumab), anti-His detection; row head on the sheet reads EC50, unit from the axis
hTSLP-His [11] = target: T5, hTSLP-His; test: as above; remark: listed apart in the source
hIL-13-His = hIL-13-His (human, UniProt P35225 35-146, limits assumed); test: cell-based or functional assay
Sequence of hIL-13-His (P35225 35-146 limits assumed): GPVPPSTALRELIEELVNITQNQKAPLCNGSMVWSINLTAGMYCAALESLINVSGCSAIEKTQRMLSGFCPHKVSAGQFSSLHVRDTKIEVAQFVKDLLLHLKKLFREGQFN

T3 sequence (Q0PW92 entry or part of it): as the sequence (P35225 35-146 limits assumed) above, with G1S, R10K, M42V, S67N, H83R, L100V counted along it
T4 sequence (A0A7N9CAT7 entry or part of it): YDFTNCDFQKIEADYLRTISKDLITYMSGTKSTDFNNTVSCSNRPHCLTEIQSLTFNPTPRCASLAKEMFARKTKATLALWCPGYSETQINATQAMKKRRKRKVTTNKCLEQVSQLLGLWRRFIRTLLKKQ
T1 sequence (P35225 35-146 limits assumed): as the sequence (P35225 35-146 limits assumed) above

Binder | Kd (recombinant human IL-13 [1]) | koff (recombinant human IL-13 [1]) | kon (recombinant human IL-13 [1]) | Kd (human TSLP [2]) | koff (human TSLP [2]) | kon (human TSLP [2]) | Kd [3] | koff [3] | kon [3] | Kd [4] | koff [4] | kon [4] | IC50 CD23 (recombinant human IL-13 [5]) | IC50 TARC (human TSLP [6]) | IC50 [pM], STAT5 phosphorylation inhibition in MUTZ5 cells (hTSLP-His [7]) | HEK-IL-13 [nM] (IC50, STAT6 reporter) (recombinant human IL-13 [8]) | IC50 (hTSLP-His [9]) | IC50 (hTSLP-His [10]) | IC50 (hTSLP-His [11]) | IC50, CD23 expression on monocytes (hPBMC, 0.7 nM IL-13) (hIL-13-His)
BDG38.075 (antibody, V domains shown, IgG1) VH: QMQLVESGGGVVQPGRSLRLSCAASGFAFRTYGMHWVRQAPGKGLEWVAVIWYDGSATHYADSVKGRFTITRDNSKNTLNLQMNSLRAEDTAVYYCVRAPQWYLSAEAFDLWGQGTMVTVSS VL: SYVLTQPPSVSVAPGETATITCGGNLIGAYLVHWYQQKPGQAPVLVIYDDVDRPARIPERFSGSNSGNTATLTISRVEAGDEADYYCQVWDHDTNTMVFGGGTKLTVL | 31.8 pM | 0.000547 s⁻¹ | 1.72e+07 M⁻¹ s⁻¹ | 12 pM | 2.38e-05 s⁻¹ | 1.98e+06 M⁻¹ s⁻¹ | 454 pM | 0.0156 s⁻¹ | 3.45e+07 M⁻¹ s⁻¹ | 2.79 pM | 7.59e-06 s⁻¹ | 2.72e+06 M⁻¹ s⁻¹ | 97.5 pM | 4170 pM | 43.9 pM | 0.0691 nM | 3940 pM | 3390 pM | – | –
BDG38.077 (antibody, V domains shown, IgG1) VH: QMQLVESGGGVVQPGRSLTLSCAASGFAFRTYGMHWVRQAPGKGLEWVGVIWYDGSATHYADSVKGRFTITRDNSKNTLNLQMNSLRAEDTAVYYCVRAPQWYLTAEAFDLWGQGTMVTVSS VL: SYVLTQPPSVSVAPGETATITCGGALIGSRLVHWYQQKPGQAPVLVIYDDSDRPSRIPERFSGSNIGNTATLTISDVEAGDEADYYCQVWDHSSNTYVFGGGTKLTVL | 32.5 pM | 0.000539 s⁻¹ | 1.66e+07 M⁻¹ s⁻¹ | 166 pM | 0.000144 s⁻¹ | 869000 M⁻¹ s⁻¹ | – | – | – | – | – | – | 12.4 pM | 2470 pM | 304 pM | 0.0505 nM | 8470 pM | 8480 pM | – | –
BDG38.078 (antibody, V domains shown, IgG1) VH: QMQLVESGGGVVQPGRSLRLSCAASGFEFRTYGMHWVRQAPGKGLEWLGVIWYDGSNTHYADSVKGRFTITRDNSKNTLNLQMNSLRVEDTAVYYCVRAPQWYLTAEAFDLWGQGTMVTVSS VL: SYILTQPPSVSVAPGETATITCGGNLIGARLVHWYQQKPGQAPVLVIYDDSDRPSRIPERFSGSNIGNTATLTIERVEAGDEADYYCQVWDYYSDHMVFGGGTKLTVL | 85.7 pM | 0.000203 s⁻¹ | 2.37e+06 M⁻¹ s⁻¹ | 0.231 pM | 2.95e-07 s⁻¹ | 1.28e+06 M⁻¹ s⁻¹ | – | – | – | – | – | – | 125 pM | 6520 pM | 338 pM | 0.0508 nM | 4300 pM | – | 4300 pM | –

Now from value to binder:

Kd (recombinant human IL-13 [1]) | koff (recombinant human IL-13 [1]) | kon (recombinant human IL-13 [1]) | Kd (human TSLP [2]) | koff (human TSLP [2]) | kon (human TSLP [2]) | Kd [3] | koff [3] | kon [3] | Kd [4] | koff [4] | kon [4] | IC50 CD23 (recombinant human IL-13 [5]) | IC50 TARC (human TSLP [6]) | IC50 [pM], STAT5 phosphorylation inhibition in MUTZ5 cells (hTSLP-His [7]) | HEK-IL-13 [nM] (IC50, STAT6 reporter) (recombinant human IL-13 [8]) | IC50 (hTSLP-His [9]) | IC50 (hTSLP-His [10]) | IC50 (hTSLP-His [11]) | IC50, CD23 expression on monocytes (hPBMC, 0.7 nM IL-13) (hIL-13-His) | Binder
– | – | – | – | – | – | – | – | – | – | – | – | – | – | – | – | – | – | – | 910 pM | Tralokinumab (antibody, V domains shown) VH: QVQLVQSGAEVKKPGASVKVSCKASGYTFTNYGLSWVRQAPGQGLEWMGWISANNGDTNYGQEFQGRVTMTTDTSTSTAYMELRSLRSDDTAVYYCARDSSSSWARWFFDLWGRGTLVTVSS VL: SYVLTQPPSVSVAPGKTARITCGGNIIGSKLVHWYQQKPGQAPVLVIYDDGDRPSGIPERFSGSNSGNTATLTISRVEAGDEADYYCQVWDTGSDPVVFGGGTKLTVL
– | – | – | – | – | – | – | – | – | – | – | – | – | – | – | – | – | – | – | 380 pM | Lebrikizumab (antibody, V domains shown) VH: QVTLRESGPALVKPTQTLTLTCTVSGFSLSAYSVNWIRQPPGKALEWLAMIWGDGKIVYNSALKSRLTISKDTSKNQVVLTMTNMDPVDTATYYCAGDGYYPYAMDNWGQGSLVTVSS VL: DIVMTQSPDSLSVSLGERATINCRASKSVDSYGNSFMHWYQQKPGQPPKLLIYLASNLESGVPDRFSGSGSGTDFTLTISSLQAEDVAVYYCQQNNEDPRTFGGGTKVEIKR
